Results reported in patent US20200199241A1 (Chugai, published 2020).
Where two headings read alike, the source gives them in different places.

T1: mouse FcγRIII (mouse, UniProt P08508 31-215)
T1 construct: bought; also called mFcgRIII; mFcgR III
T1 sequence (looked up): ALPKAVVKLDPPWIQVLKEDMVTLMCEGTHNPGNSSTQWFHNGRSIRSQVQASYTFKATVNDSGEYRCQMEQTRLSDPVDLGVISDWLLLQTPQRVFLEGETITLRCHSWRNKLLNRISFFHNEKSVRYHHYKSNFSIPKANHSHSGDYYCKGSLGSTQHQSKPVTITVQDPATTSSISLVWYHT

T2: mouse FcγRIIb (mouse, UniProt P08101 30-207, limits assumed)
T2 construct: bought; also called mFcgRIIb; mFcgR IIb
T2 sequence (looked up): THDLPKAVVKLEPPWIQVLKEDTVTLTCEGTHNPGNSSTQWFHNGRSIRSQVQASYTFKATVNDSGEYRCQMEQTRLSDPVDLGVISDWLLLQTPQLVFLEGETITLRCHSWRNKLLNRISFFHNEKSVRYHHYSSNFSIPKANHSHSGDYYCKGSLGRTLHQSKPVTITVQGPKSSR

T3: mouse FcγRIV (mouse, UniProt A0A0B4J1G0 21-203)
T3 construct: bought; also called mFcgRIV; mFcgR IV; the vendor's purification tag not given
T3 sequence: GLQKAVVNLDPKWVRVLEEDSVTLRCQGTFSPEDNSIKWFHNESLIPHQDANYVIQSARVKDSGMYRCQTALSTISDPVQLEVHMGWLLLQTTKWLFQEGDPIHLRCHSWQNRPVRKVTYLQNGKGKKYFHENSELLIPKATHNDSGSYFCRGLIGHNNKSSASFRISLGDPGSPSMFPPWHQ

T4: mouse FcγRI (mouse, UniProt P26151 25-297)
T4 construct: bought; also called mFcgRI; mFcgR 1
T4 sequence (looked up): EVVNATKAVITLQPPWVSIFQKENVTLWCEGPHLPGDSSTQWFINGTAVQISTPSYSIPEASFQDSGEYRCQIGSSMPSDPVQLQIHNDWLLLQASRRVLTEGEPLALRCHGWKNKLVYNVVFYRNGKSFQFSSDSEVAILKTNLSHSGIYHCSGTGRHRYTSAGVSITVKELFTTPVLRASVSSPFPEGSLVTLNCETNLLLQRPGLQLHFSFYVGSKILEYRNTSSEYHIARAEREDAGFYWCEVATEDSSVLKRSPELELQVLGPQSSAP

T5: human FcγRIIb (human, UniProt P31994 43-217, limits assumed)
T5 construct: also called FcγIIB
T5 sequence: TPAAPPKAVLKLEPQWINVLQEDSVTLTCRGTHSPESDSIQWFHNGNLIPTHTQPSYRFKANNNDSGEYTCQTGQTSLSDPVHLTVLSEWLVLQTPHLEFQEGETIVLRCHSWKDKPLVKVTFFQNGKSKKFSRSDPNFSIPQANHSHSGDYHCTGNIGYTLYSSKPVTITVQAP

T6: human FcγRIIb (human, UniProt P31994 43-217, limits assumed)
T6 construct: also called hFcgRIIb; FcγIIB
T6 sequence: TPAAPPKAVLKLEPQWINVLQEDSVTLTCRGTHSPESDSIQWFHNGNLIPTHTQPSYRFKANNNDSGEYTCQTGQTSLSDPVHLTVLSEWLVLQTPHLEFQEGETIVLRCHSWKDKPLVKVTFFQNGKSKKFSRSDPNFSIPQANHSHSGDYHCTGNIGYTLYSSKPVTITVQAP

T7: human FcγRIIa(H) (human, UniProt P12318 36-217)
T7 construct: also called hFcgRIIa(H); FcγRIIa type H
T7 sequence: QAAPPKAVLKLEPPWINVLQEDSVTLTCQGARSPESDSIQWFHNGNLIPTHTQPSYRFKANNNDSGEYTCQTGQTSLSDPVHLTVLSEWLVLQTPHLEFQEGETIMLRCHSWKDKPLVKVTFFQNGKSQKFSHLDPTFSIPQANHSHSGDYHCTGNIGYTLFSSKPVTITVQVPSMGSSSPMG

T8: human FcγRIIa(R) (human, UniProt P12318 36-217)
T8 construct: also called hFcgRIIa(R); FcγRIIa type R
T8 chain: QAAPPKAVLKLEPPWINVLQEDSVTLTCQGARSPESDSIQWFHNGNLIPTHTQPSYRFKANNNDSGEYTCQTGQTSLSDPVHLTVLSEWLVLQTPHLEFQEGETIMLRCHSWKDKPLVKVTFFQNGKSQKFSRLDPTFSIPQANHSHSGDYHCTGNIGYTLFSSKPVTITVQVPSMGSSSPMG


Assays:
mouse FcγRIII [1] = target: T1, mouse FcγRIII; assay: SPR, antibody captured by Protein L, mouse FcγR as analyte, pH 7.4, 25 C
mouse FcγRIIb [2] = target: T2, mouse FcγRIIb; assay: as above
mouse FcγRIV [3] = target: T3, mouse FcγRIV; assay: as above
mouse FcγRI [4] = target: T4, mouse FcγRI; assay: as above
human FcγRIIb [5] = target: T5, human FcγRIIb; assay: SPR (Biacore), antibody captured, FcγR as analyte
human FcγRIIb [6] = target: T5, human FcγRIIb; assay: SPR (Biacore); ratio against IgG1
[7] = target: T9, human FcRn (soluble human FcRn complexed with β2-microglobulin) (human, UniProt P61769 21-119, limits assumed); assay: SPR, antibody captured by Protein L, human FcRn as analyte, pH 7.0, 25 C
T9 construct: also called hFcRn

human FcγRIIb [8] = target: T6, human FcγRIIb; assay: SPR, antibody captured by Protein L, human FcγR as analyte, pH 7.4, 25 C;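 note: biacore T100 or T200 with Protein L amine-coupled on a CM4 chip, FcγRs diluted in ACES saline with polysorbate 20, buffer-only injection as blank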
human FcγRIa = target: T10, human FcγRIa (human, UniProt P12314 16-292, limits assumed); assay: as above
T10 construct: also called hFcgRIa; hFcgRI

human FcγRIIa(H) = target: T7, human FcγRIIa(H); assay: as above
human FcγRIIIa(V) = target: T11, human FcγRIIIa(V) (human, UniProt P08637 17-208, limits assumed); assay: as above
T11 construct: also called hFcgRIIIa(V); allotype V158

human FcγRIIa(R) = target: T8, human FcγRIIa(R); assay: as above
mouse FcγRIII [9] = target: T1, mouse FcγRIII; assay: SPR, antibody captured by Protein L, mouse FcγR as analyte, pH 7.4, 25 C; remark: listed apart in the source
mouse FcγRIIb [10] = target: T2, mouse FcγRIIb; assay: as above; remark: listed apart in the source
mouse FcγRIV [11] = target: T3, mouse FcγRIV; assay: as above; remark: listed apart in the source
mouse FcγRI [12] = target: T4, mouse FcγRI; assay: as above; remark: listed apart in the source
[13] = target: T9, human FcRn (soluble human FcRn …); assay: SPR, antibody captured by Protein L, human FcRn as analyte, pH 7.0, 25 C; remark: listed apart in the source

T9 sequence (chain, as listed by the source limits assumed, chain 1 of 2): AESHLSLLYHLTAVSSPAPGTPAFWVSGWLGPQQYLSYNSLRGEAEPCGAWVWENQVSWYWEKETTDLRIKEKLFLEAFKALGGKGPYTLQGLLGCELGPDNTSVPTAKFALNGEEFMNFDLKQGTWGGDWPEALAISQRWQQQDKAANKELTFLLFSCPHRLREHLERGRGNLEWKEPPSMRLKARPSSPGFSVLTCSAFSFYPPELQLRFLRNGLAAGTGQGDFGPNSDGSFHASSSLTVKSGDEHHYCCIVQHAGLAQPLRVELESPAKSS
T9 sequence (P61769 21-119 limits assumed, chain 2 of 2): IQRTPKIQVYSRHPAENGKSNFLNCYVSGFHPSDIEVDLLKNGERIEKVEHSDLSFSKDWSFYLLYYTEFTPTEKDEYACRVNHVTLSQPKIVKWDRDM
T10 sequence (P12314 16-292 limits assumed): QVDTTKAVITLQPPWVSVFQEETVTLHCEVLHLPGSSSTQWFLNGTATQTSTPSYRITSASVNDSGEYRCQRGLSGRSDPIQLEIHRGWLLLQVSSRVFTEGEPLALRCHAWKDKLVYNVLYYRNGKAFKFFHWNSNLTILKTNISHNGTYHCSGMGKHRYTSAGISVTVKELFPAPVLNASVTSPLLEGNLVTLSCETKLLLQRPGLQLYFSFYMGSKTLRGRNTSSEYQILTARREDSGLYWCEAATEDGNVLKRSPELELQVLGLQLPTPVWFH
T11 sequence (P08637 other isoform, or with tags, fused parts or gaps limits assumed): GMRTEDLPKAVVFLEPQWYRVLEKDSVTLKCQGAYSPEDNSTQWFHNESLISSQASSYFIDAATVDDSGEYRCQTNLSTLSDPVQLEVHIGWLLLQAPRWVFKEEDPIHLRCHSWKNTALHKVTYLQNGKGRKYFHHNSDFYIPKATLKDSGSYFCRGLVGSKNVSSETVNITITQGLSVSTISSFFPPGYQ

| Binder | BINDING AMOUNT (RU) (human FcγRIIb [8]) | BINDING AMOUNT (RU) (human FcγRIa) | BINDING AMOUNT (RU) (human FcγRIIa(H)) | BINDING AMOUNT (RU) (human FcγRIIIa(V)) | BINDING AMOUNT (RU) (human FcγRIIa(R)) | Kd [13] | also measured |
| --- | --- | --- | --- | --- | --- | --- | --- |
| antibody with mPM1H-mIgG1-mF40 heavy chain (antibody, P235K/S239K/T252Y/T256E/N434W; also called mPM1-mIgG1-mF40; copies: 2 + 2) heavy: DVQLQESGPVLVKPSQSLSLTCTVTGYSITSDHAWSWIRQFPGNKLEWMGYISYSGITTYNPSLKSRISITRDTSKNQFFLQLNSVTTGDTSTYYCARSLARTTAMDYWGQGTSVTVSSAKTTPPSVYPLAPGSAAQTNSMVTLGCLVKGYFPEPVTVTWNSGSLSSGVHTFPAVLQSDLYTLSSSVTVPSSTWPSETVTCNVAHPASSTKVDKKIVPRDCGCKPCICTVKEVSKVFIFPPKPKDVLYITLEPKVTCVVVDISKDDPEVQFSWFVDDVEVHTAQTQPREEQFNSTFRSVSELPIMHQDWLNGKEFKCRVNSAAFPAPIEKTISKTKGRPKAPQVYTIPPPKEQMAKDKVSLTCMITDFFPEDITVEWQWNGQPAENYKNTQPIMDTDGSYFVYSKLNVQKSNWEAGNTFTCSVLHEGLHWHHTEKSLSHSPGK light: not shown | – | – | – | – | – | – | BINDING AMOUNT (RU) (mouse FcγRIII [1]): -18.7 RU; BINDING AMOUNT (RU) (mouse FcγRIIb [2]): -5.2 RU; BINDING AMOUNT (RU) (mouse FcγRIV [3]): -8.9 RU; BINDING AMOUNT (RU) (mouse FcγRI [4]): -3 RU |
| IgG1-v2 (antibody, IL6R-G1d with L328E (EU numbering); also called L328E) heavy: not shown light: DIQMTQSPSSLSASVGDRVTITCRASQDISSYLNWYQQKPGKAPKLLIYYTSRLHSGVPSRFSGSGSGTDFTFTISSLQPEDIATYYCQQGNTLPYTFGQGTKVEIK | – | – | – | – | – | – | Kd (human FcγRIIb [5]): 2300 nM; relative KD for FcγRIIb (KD for IgG1/KD for each variant) (human FcγRIIb [6]): 2.3 |
| antibody with VH3-IgG1-F1009 heavy chain and L(WT)-CK light chain (antibody, L235R/S239K/T250V/M252Y/T307Q/V308P/Q311A/N434Y/Y436V; copies: 2 + 2) heavy: QVQLQESGPGLVKPSETLSLTCAVSGHSISHDHAWSWVRQPPGEGLEWIGFISYSGITNYNPSLQGRVTISRDNSKNTLYLQMNSLRAEDTAVYYCARSLARTTAMDYWGEGTLVTVSSASTKGPSVFPLAPSSKSTSGGTAALGCLVKDYFPEPVTVSWNSGALTSGVHTFPAVLQSSGLYSLSSVVTVPSSSLGTQTYICNVNHKPSNTKVDKKVEPKSCDKTHTCPPCPAPELRGGPKVFLFPPKPKDVLYISRTPEVTCVVVDVSHEDPEVKFNWYVDGVEVHNAKTKPREEQYNSTYRVVSVLQPLHADWLNGKEYKCKVSNKALPAPIEKTISKAKGQPREPQVYTLPPSRDELTKNQVSLTCLVKGFYPSDIAVEWESNGQPENNYKTTPPVLDSDGSFFLYSKLTVDKSRWQQGNVFSCSVMHEALHYHVTQKSLSLSP light: not shown | 0.16 RU | 0.31 RU | -0.02 RU | 3.64 RU | -0.27 RU | 12 nM | Kd [7]: 12 nM; BINDING AMOUNT (RU) (mouse FcγRIII [9]): -12.9 RU; BINDING AMOUNT (RU) (mouse FcγRIIb [10]): -1.5 RU; BINDING AMOUNT (RU) (mouse FcγRIV [11]): 7.2 RU; BINDING AMOUNT (RU) (mouse FcγRI [12]): 0.6 RU |
| antibody with VH3-IgG1-F1327 heavy chain and L(WT)-CK light chain (antibody, L234A/L235A/N297A on VH3-IgG1-F947; copies: 2 + 2) heavy: QVQLQESGPGLVKPSETLSLTCAVSGHSISHDHAWSWVRQPPGEGLEWIGFISYSGITNYNPSLQGRVTISRDNSKNTLYLQMNSLRAEDTAVYYCARSLARTTAMDYWGEGTLVTVSSASTKGPSVFPLAPSSKSTSGGTAALGCLVKDYFPEPVTVSWNSGALTSGVHTFPAVLQSSGLYSLSSVVTVPSSSLGTQTYICNVNHKPSNTKVDKKVEPKSCDKTHTCPPCPAPEAAGGPSVFLFPPKPKDVLYISRTPEVTCVVVDVSHEDPEVKFNWYVDGVEVHNAKTKPREEQYASTYRVVSVLQPLHADWLNGKEYKCKVSNKALPAPIEKTISKAKGQPREPQVYTLPPSRDELTKNQVSLTCLVKGFYPSDIAVEWESNGQPENNYKTTPPVLDSDGSFFLYSKLTVDKSRWQQGNVFSCSVMHEALHYHVTQKSLSLSP light: not shown | 0.74 RU | 0.87 RU | -1.14 RU | -0.6 RU | -0.2 RU | 14 nM | – |
